Test results taken from patent US20250215105A1 (published 2025).
Substitutions are numbered along the chain they refer to. Where two headings read alike, the source gives them in different places. Blank lines part the entries; values can stand above or below the binder they belong to.

Tests used:
[1] = target: T1, human CD39 recombinant antigen (UniProt P49961 38-478); assay: SPR
T1 chain: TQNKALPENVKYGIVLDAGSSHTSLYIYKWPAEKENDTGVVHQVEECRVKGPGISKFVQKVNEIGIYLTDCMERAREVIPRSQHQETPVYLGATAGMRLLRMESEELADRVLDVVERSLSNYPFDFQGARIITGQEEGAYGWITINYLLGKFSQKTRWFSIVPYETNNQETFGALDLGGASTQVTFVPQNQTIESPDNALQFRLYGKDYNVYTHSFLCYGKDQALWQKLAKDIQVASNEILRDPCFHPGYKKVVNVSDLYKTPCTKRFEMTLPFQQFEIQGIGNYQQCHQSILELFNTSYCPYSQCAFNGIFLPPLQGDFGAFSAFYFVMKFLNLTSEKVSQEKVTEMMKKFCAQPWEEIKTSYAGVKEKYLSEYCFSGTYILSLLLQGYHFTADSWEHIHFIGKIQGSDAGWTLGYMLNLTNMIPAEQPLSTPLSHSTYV

[2] = target: T1, human CD39 recombinant antigen; assay: SPR

Kd [1]: 2220 pM
B1: Tre_291_sc (antibody, V domains shown)
VH: QVQLKQSGPGLVQPSQSLSITCTVSGFSLTSYGVHWVRQSPGKGLEWLGVIWRRGSTDYNAAFMSRLSITKDTSKSQVFFKMNSLQTDDTAIYYCAGVRGDAMDYWGQGTSVTVSS
VL: DIVMTQSHKSMSTSVGDRVSVTCKASQNVGTNVAWYQQKPGQSPKALIYSASYRYSGVPDRFTGSGSGTDFTLTISNVQSEDLAEYFCQQYNSYPLTFGGGTKLEIK

Kd [1]: 369 pM
B2: HuP4_51_sc (antibody, V domains shown)
VH: QVQLVESGGGVVQPGGSLRLSCVVSGFSLTNYGVHWVRQAPGKGLEWLGVILRRGSTDYNAAFMSRLAISKDNSKNTVYLELNSLRLDDTAVYYCAKTAVVAGDYFDYWGQGTTVTVSS
VL: B1 VL with H8Q, S10F, V21I, A46L, V78M, E85D

Kd [1]: 377 pM
B3: HuP4_11_sc (antibody, V domains shown)
VH: EVQLVESGGALVQPGRSLRLSCAVSGFTLSNYGVHWVRQAPGKGLEWVAVILRRGSTDYNAAFMSRFTISKDNSKNTVYLQMNSLRADDTAVYYCAKTAVVAGDYFDYWGQGTTVTVSS
VL: B1 VL with H8Q, S10F, V21I, A46L, V78M, E85D

Kd [1]: 1650 pM
B4: I67_sc (antibody, V domains shown)
VH: DVQLQESGPSLVQPSQSLSINCTVSGFSLSSYGVHWVRQSPGKGLEWLGVIWRRGSTDYNAAFMSRLSITKDNSKSQVFFKMNRLQADDTATYYCAKGISTATSWFAYWGQGTLVTVSA
VL: B1 VL with S10F, G100A, I106L

Kd [1]: 106 pM
B5: HuP4_41_sc (antibody, V domains shown)
VH: B2 VH with S28T, G49A
VL: B1 VL with H8Q, S10F, V21I, A46L, V78M, E85D

Kd [1]: 307 pM
B6: P4_sc (Fc fusion)
VH: QVQLKESGPSLVQPSQSLSITCTVSGFSLTNYGVHWVRQSPGKGLEWLGVILRRGSTDYNAAFMSRLSITKDNSKSQVFFKMNSLQADDTAIYYCAKTAVVAGDYFDYWGQGTTLTVSS
VL: B1 VL with S10F, G100T

Kd [1]: 4750 pM
B7: mAnE67_sc (antibody, V domains shown)
VH: EVQLVESGGGLVKPGGSRKLSCAASGFTFSDYGMHWVRQAPEKGLEWVAYISSGSSIIYYADTVKGRFTISRDNAKNTLFLQMTGLRSEDTAMYYCARKDYPYAMDYWGQGTSLAVSS
VL: B1 VL

Kd [2]: 956 pM
B8: I-394h4 (antibody, V domains shown)
VH: EVQLQQSGPELVKPGASVKMSCKASGYTFTDYNMHWVKQSHGRTLEWIGYIVPLNGGSTFNQKFKGRATLTVNTSSRTAYMELRSLTSEDSAAYYCARGGTRFAYWGQGTLVTVSA
VL: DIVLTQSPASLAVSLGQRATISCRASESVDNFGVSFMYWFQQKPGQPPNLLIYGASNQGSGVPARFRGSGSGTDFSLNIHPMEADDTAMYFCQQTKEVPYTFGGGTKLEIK

Kd [1]: 396 pM
B9: HuP4_IB_sc (Fc fusion)
VH: QVQLLESGPELVKPSATLSITCTVSGFSLTNYGVHWIRQAPGKGLEWLGVILRRGSTDYNAAFMSRFTISKDNSKNQVYFKLRSVTAEDTAVYYCAKTAVVAGDYFDYWGQGTMVTVSS
VL: DIQMTQSHSTLSLSVGDRVTITCKASQNVGTNVAWYQQKPGQPPKALIYSASYRYSGVPSRFSGSGSGTDFTLTISSVQAEDVAVYYCQQYNSYPLTFGPGTKLEIK

Kd [1]: 4280 pM
B10: T86_sc (antibody, V domains shown)
VH: QIQLVQSGPELKKPGETVKISCEASGYTFINYGMNWVKQAPGKGLKWMGWINTYTGEPTYADDFKGRFAFSLETSANTAYLQINNLKNEDTATYFCARKGYYGYPNYYAMDYWGQGTSVTVSS
VL: DIVMTQSQKFMSTSVGDRVSITCKASQNVGTAVAWYQQKPGQSPKLLIYSASNRYTGVPDRFTGSGSGTDFTLTISNMQSEDLADYFCQQYSSYPITFGTGTKLEIK

Kd [2]: 399 pM
B11: 6-3m1 (antibody, V domains shown)
VH: QVQLKQSGAELVKPGASVKLSCTASGFSIKDTYVHWVKQRPEQGLEWIGKIDPANVNTKFDPKFQGKATITADTSSNTAYLQLSSLTSEDTAVYYCALYGYDDDAYYFDYWGQGTTLTVSS
VL: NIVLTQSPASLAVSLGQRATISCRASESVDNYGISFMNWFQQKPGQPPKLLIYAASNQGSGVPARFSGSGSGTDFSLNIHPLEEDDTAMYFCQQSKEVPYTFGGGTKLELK

Kd [2]: 9830 pM
B12: T-31414h4 (antibody, V domains shown)
VH: QVQLVQSGAEVKKPGASVKVSCKASGYTFKSYEMHWVRQAPGQGLEWMGRINPSVGSTWYAQKFQGRVIMIRDTSTSTVYMELSSLRSEDTAVYYCARGKREGGTEYLRNWGQGTLVTVSS
VL: EIVLIQSPGILSLSPGERATLSCRASQSVSSSYLAWYQQKPGQAPRLLIYGASSRATGIPDRFSGSGSGTDFTLTISRLEPEDFAVYYCQQYHSYITFGGGTKVEIK

Kd [2]: 573 pM
B13: 23-7m1 (antibody, V domains shown)
VH: EVQLQQSGPELEKPGASVKISCKVSGYSFTDYNLNWVKQYNGKNLEWIGNIDPYSGGTRYNQKFKGKATLTIDQSSSTAYMHLKSLTSEDSAVYYCGLYGYDDDANYFDDWGQGTTLTVSS
VL: EIVLTQSPAIMSPSPGEKVTIACSASSSVSYMHWFQQKPGTSPKLWIYATSNLASGVPARFSGSGSGTSYSLTISRMEAEDVATYYCQQRSSYPLTFGAGTKLELK
